{"source": "the supplement of paper PMC9170038"}
{"tested_on": "MS2 coat protein", "experiment": "apparent KD of MS2 coat protein, switch OFF state (with FMN for OFF switches, without FMN for ON switches); designed switch direction (-1 OFF switch, 1 ON switch): -1; higher = weaker reporter binding", "settings": "FMN input: 0 or 200 uM; Eterna round: R93 (includes R88 designs)", "in_short": "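For every design, apparent KD is the median of normalised binding-curve fits from its clusters. The RNA switches were transcribed on-chip from Illumina sequencing clusters and titrated with SNAP-549-labelled MS2 coat protein (twofold steps, 0.7 or 1.5 nM to 3 µM; 0.8–1.5 h to 10–20 min per step). Titrations used 100 mM Tris-HCl pH 7.5, 80 mM KCl, 4 mM MgCl2, without or with constant ligand.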", "units": {"apparent KD of MS2 coat protein": "nM"}}
{"sequence": "AAAAAACAUGAGGAUCACCCAUGUCAGGAUAUGCUAUGGAAAUAAAAAAUAAAACAUAGCAGAAGGGACACCAA [Mat - Exclusion 1 - Eli mod - D48]", "apparent KD of MS2 coat protein": 55}
{"sequence": "AAGAACCAAGGAUAUACAUGAGGAUCACCCAUGUAAAAGAAAGAGGGAAAAGAGAAAAGUAGAAGGUGGAAGAA [Ptolemy VI Philometor]", "apparent KD of MS2 coat protein": 32.1}
{"sequence": "AAAAAGAGAGGAUAUACAUGAGGAUCACCCAUGUGAAAGACGAAAAAAAGUCUAAAAUGUAGAAGGCUCAAAAA [65%, Moding Exclusion3-cac2, 13]", "apparent KD of MS2 coat protein": 89.7}
{"sequence": "AGGUUGUCAGGAUAUGCGUGAAGAAUAAAACAAAUAACAACGCAGAAGGGACAUGAGGAUCACCCAUGUAACCA [May 53]", "apparent KD of MS2 coat protein": 27.2}
{"sequence": "GGUUGGCGAGGAUAUACAUGAGGAUCACCCAUGUGAGAGAAGAAAGUGAGGAGGAGAAGUAGAAGGCGCUGACG [salish99-ex3-20]", "apparent KD of MS2 coat protein": 98.9}
{"sequence": "UUUACGUGAGGAUAUGCGAAUAGUACGUAAGUCUUACAGACGCAGAAGGCACAUGAGGAUCACCCAUGUGAACC [JR_Exc004_Sub310]", "apparent KD of MS2 coat protein": 55.9}
{"sequence": "AUGUACCUAGGAUAUACAUGAGGAUCACCCAUGUUCCGGGAGCAAUCAAGUUAAUAUUGUAGAAGGAGGUGAAA [JR_Exc003_Sub314]", "apparent KD of MS2 coat protein": 28.4}
{"sequence": "AAAAAACAUGAGGAUCACCCAUGUAAGGAUAUCAGAGAAUUAAAAAAAAAAAAAAAAAUGAGAAGGUACAAAAA [excaliber]", "apparent KD of MS2 coat protein": 19}
{"sequence": "AAUAAGUCAGGAUAUACUAAAGAAAUGAAAAGAAAUAAAGAACAUGAGGAUCACCCAUGUAGAAGGGACAAUAA [Anati Djedkare]", "apparent KD of MS2 coat protein": 53.6}
{"sequence": "AAAAAACAUGAGGAUCACCCAUGUAAGGAUAUGCUCGUCAGUGCGAAAGCACAGAUGAGCAGAAGGUACAAAAA [66%, Wbt, 43]", "apparent KD of MS2 coat protein": 39}
{"sequence": "AGUGAGUCAGGAUAUUAGUGAAGAAUAAAAGAAAUAACAACUAAGAAGGGACAUGAGGAUCACCCAUGUACACA [May 58]", "apparent KD of MS2 coat protein": 20.9}
{"sequence": "AGCUAGUGAGGAUAUACGAAUCUGUCAAAAGACGGAAGGGAACAUGAGGAUCACCCAUGUAGAAGGCACUAGCA [Web Mod 74% 6]", "apparent KD of MS2 coat protein": 23.2}
{"sequence": "AAGAAGACAGGAUAUACAAAAUAAAAGAAAAGAAAGAAAGAACAUGAGGAUCACCCAUGUAGAAGGGUCAAGAA [Sekhemkare Amenemhat V]", "apparent KD of MS2 coat protein": 31.1}
{"sequence": "CACGUACAUGAGGAUCACCCAUGUUAGGAUAUGCCGGGUAAGAGAAAACUAAAAAUCCGCAGAAGGGACGAAAC [Bilbo Confounded 15 - Jieux - Exclusion 1]", "apparent KD of MS2 coat protein": 33.8}
{"sequence": "AAAUUAGGAGGAUAUACAUGAGGAUCACCCAUGUGACGAUGUUACUGCAUGAAGUCAAGUAGAAGGUCUAAGAA [Cearar]", "apparent KD of MS2 coat protein": 44.2}
{"sequence": "GCUUGUGAAGGAUAUACAUGAGGAUCACCCAUGUGAGAGAAAAAAGUGAGAAAGAAAAGUAGAAGGUCGUGAGG [salish99-ex3-79]", "apparent KD of MS2 coat protein": 37}
{"sequence": "AAAAAGUCAGGAUAUACGUAAGUGCGAAAGCACAAAUGGAAACAUGAGGAUCACCCAUGUAGAAGGGACAAGAA [JL In the Red 02 (Mod)]", "apparent KD of MS2 coat protein": 23.6}
{"sequence": "AAGAAGAGAGGAUAUACAUGAGGAUCACCCAUGUAAAAGAAAGAAAGGGAAAAGAAAAGUAGAAGGCUCAAGAA [Neferkare-setpenre Ramesses IX]", "apparent KD of MS2 coat protein": 45.7}
{"sequence": "AAUAAGUGAGGAUAUCCAAAUAGUAGAUAAGAUUCCCUAAAGGAGAAGGCACAUGAGGAUCACCCAUGUAAAUA [JR_Exc004_Sub006]", "apparent KD of MS2 coat protein": 31.5}
{"sequence": "AGAAAACAUGAGGAUCACCCAUGUAAGGAUAUGCUGAAAAACACGGAAAAAACGUGCAGCAGAAGGUACAAAAA [Mat - Exclusion 1 - Eli mod - D97]", "apparent KD of MS2 coat protein": 38.6}
{"sequence": "AAGAAGUGAGGAUAUACAAAAUAAAAGAAAAGAAAGAAAGAACAUGAGGAUCACCCAUGUAGAAGGCACAAGAA [Sekhemkare Amenemhat V]", "apparent KD of MS2 coat protein": 17.8}
{"sequence": "AAAGAUGGAGGAUAUACAUGAGGAUCACCCAUGUAAAAAAAAAAGAGGGAAAAAGAAAGUAGAAGGCCACAAAA [Ex 3 May 44]", "apparent KD of MS2 coat protein": 46.4}
{"sequence": "AAGAACUUAGGAUAUACAAGGAAGAAAGAAAAGAAAAGAAAACAUGAGGAUCACCCAUGUAGAAGGAAGUAGAA [EteRNA is fun!]", "apparent KD of MS2 coat protein": 21.5}
{"sequence": "AGGCAGACAGGAUAUACUUGGGCAGCCAGUAUGGUAAUAUAACAUGAGGAUCACCCAUGUAGAAGGGUCAGAAA [JR_Exc002_Sub210]", "apparent KD of MS2 coat protein": 88.4}
{"sequence": "AAAGGAUCAGGAUAUGUGUGGAAAAAGUGUAUCCAAAAAAAACAUGAGGAUCACCCAUGUAGAAGGGAUCCAAA [Mod 2 of Normal (20/19) by Nando, Round 1]", "apparent KD of MS2 coat protein": 441}
{"sequence": "AAAAAACAUGAGGAUCACCCAUGUAAGGAUAUGCAAAACCCAUAUAAAAAGGGAAAAAGCAGAAGGUGCAAAAA [wbt round 1 mod 5]", "apparent KD of MS2 coat protein": 33.2}
{"sequence": "GGUUGGCGAGGAUAUACAUGAGGAUCACCCAUGUGAGAGAAAAAAGUGAGAAAGAAACGUAGAAGGCGCUGACG [salish99-ex3-30]", "apparent KD of MS2 coat protein": 824}
{"sequence": "CUCUUGUCAGGAUAUCAAAGAAAAGAAAAGAAAGAAAAGAAUGAGAAGGGACAUGAGGAUCACCCAUGUAAGAA [EteRNA is fun!]", "apparent KD of MS2 coat protein": 34.8}
{"sequence": "AAAUUGUCAGGAUAUCGUAUAAUAUGGAAAACAUAGAGAUACGAGAAGGGACAUGAGGAUCACCCAUGUAAAAC [May 96]", "apparent KD of MS2 coat protein": 31.1}
{"sequence": "AUGUAGGUAGGAUAUGCAUAGAUACAGAUUCAUGUGGAACUACAUGAGGAUCACCCAUGUAGAAGGACCUAAAA [Mat - Same state - Mayanna Mod - D126]", "apparent KD of MS2 coat protein": 30}
{"sequence": "AAAAUGUGAGGAUAUGUACGAAAAAAUAAAAAAAUAAAAGUACAGAAGGCACAUGAGGAUCACCCAUGUGGGAA [EX4 399: Minimal 12]", "apparent KD of MS2 coat protein": 94}
{"sequence": "CAUAGGCGAGGAUAUACAUGAGGAUCACCCAUGUAAGGAAACCUGGCAGACUCAGAAUGUAGAAGGCGCACUGA [Ex3_Neo]", "apparent KD of MS2 coat protein": 32.5}
{"sequence": "AAUAAGAGAGGAUAUACUAAAGAAAUGAAAAGGGAUAAAGAACAUGAGGAUCACCCAUGUAGAAGGCUCAAUAA [Khyan]", "apparent KD of MS2 coat protein": 40.3}
{"sequence": "AGGGUACAUGAGGAUCACCCAUGUUAGGAUAUACAAAAGAAAAGAAAAGAAAGAAGAAGUAGAAGGGACAAGAA [Teti]", "apparent KD of MS2 coat protein": 59.1}
{"sequence": "AAAAAUGGAGGAUAUACAUGAGGAUCACCCAUGUGUGGGUAUACUGUGUCGGCGUCAGGUAGAAGGCCAAAAAA [Gilly Gone Silly 28 - Jieux - Exclusion 3]", "apparent KD of MS2 coat protein": 121}
{"sequence": "GAAACUAGAGGAUAUACGUACAUGUCAAAAGACGUGAAGGGACAUGAGGAUCACCCAUGUAGAAGGCUAGAAAG [Mat - Exclusion 2 - JL mod - D98]", "apparent KD of MS2 coat protein": 54.2}
{"sequence": "AACAGGUCAGGAUAUGUGGAAAAAAUAAAAAAAAUAAAAACACAGAAGGGACAUGAGGAUCACCCAUGUAAAAA [May 20]", "apparent KD of MS2 coat protein": 75.6}
{"sequence": "AGUUGGCGAGGAUAUACAUGAGGAUCACCCAUGUAAAAUAAAUAAAAAAUAAAAGGGAGUAGAAGGCGCUGACA [73%, Moding Norbert Elias, 16]", "apparent KD of MS2 coat protein": 53.4}
{"sequence": "AACAUGUGAGGAUAUAAAAUGAAUAUAAAUUAUUAUCUUGAUUAGAAGGCACAUGAGGAUCACCCAUGUCUGAA [E4-1.2]", "apparent KD of MS2 coat protein": 25.2}
{"sequence": "GGAAAACAUGAGGAUCACCCAUGUAAGGAUAUGCAAAGGAUAUAGAAGGAAAAAAAAAGCAGAAGGUACAAAGG [salish99-ex1-20]", "apparent KD of MS2 coat protein": 53.6}
{"sequence": "AGAAAGUCAGGAUAUACGAAUAAGAAAAAAGACGAGAACGGACAUGAGGAUCACCCAUGUAGAAGGGACAAGAA [Diamond 15]", "apparent KD of MS2 coat protein": 40.6}
{"sequence": "GAAAAGUGAGGAUAUGUCAAAAGUCACAAAAGUGACAAAAGACAGAAGGCACAUGAGGAUCACCCAUGUGGAAA [Mat - Exaclusion 4 - Eli mod - D51]", "apparent KD of MS2 coat protein": 38.4}
{"sequence": "UAGAUACAUGAGGAUCACCCAUGUGAGGAUAUCGUUUGUACUAAUCUUUUAGUAUUUUCGAGAAGGCACAUAUA [Ex1Try2_Neo]", "apparent KD of MS2 coat protein": 143}
{"sequence": "ACUUAGACAGGAUAUACGUGAGUGGAAAAAGUGUUUCCACUACAUGAGGAUCACCCAUGUAGAAGGGUCUAAGA [Ex2 Design 181: Random 6B]", "apparent KD of MS2 coat protein": 82.3}
{"sequence": "AAAAAGUCAGGAUAUGUGGAAAAAAUAAAAAAAAUAAAAACACAGAAGGGACAUGAGGAUCACCCAUGUAAAAA [Ex 4 May 19]", "apparent KD of MS2 coat protein": 47.2}
